Consider four molecules from patent US20160272721A1 (NEOMICS, published 2016).

B1: H5 Fab (Fab, V domains shown)
VH: QEQLVESGGGLVTPGGTLTLTCTASGFTISSYHMTWVRQAPGKGLEWIGVISNSGGTSYANWAKGRFTISKTSTTVDLKITSPTTEDTATYFCVRGVPGINSNLWGQGTLVTISS
VL: AQVLTQTPSSVSAAVGGTVTINCQSSQSVYSGNWLAWYQQKPGQPPKLLIYSTSTLASGVPSRFKGSGSGTQFTLTVSDLECDDAATYYCAGDYDGYKNAFGGGTKVVVKR
notes: Detected with anti-HA tag or anti-human Fab antibody, so vector tags may be present; they are not described; also called antibody fragment H5 Fab; antibody (Fab) of colon H5
B4: AIMP2-DX2 epitope peptide (amino acid residues 42 to 52, GHVQDYGALKD, of the AIMP2-DX2 protein) (peptide)
peptide: GHVQDYGALKD

In test [1] the target is T1, AIMP2-DX2 with thirty three (33) N-terminal amino acids deleted, fused with strep tag (human, UniProt Q13155 34-320).
T1 construct: Expressed in HEK293T cells, tested in cell lysate; also called Δ33-DX2; Δ33; not shown: strep tag of thirty amino acids including a linker peptide
T1 sequence: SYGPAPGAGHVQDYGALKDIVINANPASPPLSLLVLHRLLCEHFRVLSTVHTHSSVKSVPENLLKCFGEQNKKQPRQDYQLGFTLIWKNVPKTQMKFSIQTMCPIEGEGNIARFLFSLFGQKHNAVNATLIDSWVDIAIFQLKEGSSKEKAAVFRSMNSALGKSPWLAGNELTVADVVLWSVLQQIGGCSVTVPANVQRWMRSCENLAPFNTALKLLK
Kind of test: Western blot of HEK293T lysates (FIG. 20a). From the text: (§1) FIG. 20a and FIG. 20b show a test result of determining the effect of N-terminal amino acid deletion of the AIMP2-DX2 protein on the binding between the H5 Fab and the AIMP2-DX2 protein. […] Being fused with strep tag, the AIMP2-DX2 proteins expressed in HEK293T cells were the full-length AIMP2-DX2 protein (“F-DX2” or “F”) and its N-terminal deleted isotypes (“42-DX2” or “42” for two (2) amino acid deletion; “423-DX2” or “423” for twenty three (23) amino acid deletion; “433-DX2” or “433” for thirty three (33) amino acid deletion), respectively. […] “EV” means an empty vector.
(§2) Further, the effect of N-terminal amino acid deletion of the AIMP2-DX2 protein on the binding between H5 Fab and AIMP2-DX2 protein was analyzed (See FIG. 20). It was reported that N-terminal amino acid residues of the AIMP2-DX2 exert a significant effect on the solubility of the AIMP2-DX2. AIMP2-DX2 derivatives in which the N-terminal two (2), twenty three (23) or thirty three (33) amino acid residues were deleted, respectively, were prepared (See FIG. 20b). The full-length AIMP2-DX2 and its isotypes were fused with strep tag and then expressed in the HEK293T cells, followed by Western blot analysis using H5 Fab.

Test [2] deals with T2, AIMP2-DX2 with two (2) N-terminal amino acids deleted, fused with strep tag (human, UniProt Q13155 3-320).
T2 construct: Expressed in HEK293T cells, tested in cell lysate; also called Δ2-DX2; Δ2; not shown: strep tag of thirty amino acids including a linker peptide
T2 sequence: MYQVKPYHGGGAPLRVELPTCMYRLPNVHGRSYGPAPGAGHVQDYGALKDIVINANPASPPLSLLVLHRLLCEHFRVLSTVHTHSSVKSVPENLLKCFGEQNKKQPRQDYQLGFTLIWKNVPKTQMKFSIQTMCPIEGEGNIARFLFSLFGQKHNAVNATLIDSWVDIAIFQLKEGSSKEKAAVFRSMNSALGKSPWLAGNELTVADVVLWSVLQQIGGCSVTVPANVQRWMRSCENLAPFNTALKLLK
Kind of test: Western blot of HEK293T lysates (FIG. 20a).
Source text: as §1, §2
Background: In western blotting, separated proteins are transferred to a membrane and probed.

Test [3] addresses T3, AIMP2-DX2 with twenty three (23) N-terminal amino acids deleted, fused with strep tag (human, UniProt Q13155 24-320).
T3 construct: Expressed in HEK293T cells, tested in cell lysate; also called Δ23-DX2; Δ23; not shown: strep tag of thirty amino acids including a linker peptide
T3 sequence: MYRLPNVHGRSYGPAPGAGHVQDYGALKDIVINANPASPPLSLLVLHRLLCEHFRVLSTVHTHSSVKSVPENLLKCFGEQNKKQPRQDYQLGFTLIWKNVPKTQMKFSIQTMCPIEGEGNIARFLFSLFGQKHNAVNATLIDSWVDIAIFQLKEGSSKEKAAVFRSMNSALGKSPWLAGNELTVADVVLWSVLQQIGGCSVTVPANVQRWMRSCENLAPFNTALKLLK
The test is described as follows: Western blot of HEK293T lysates (FIG. 20a).
Source text: as §1, §2

The target of test [4] is T4, AIMP2 protein (wild type, full-length) (human, UniProt Q13155 1-312, limits assumed).
T4 construct: 217 is written here; B42 fusion (pJG4-5) in yeast two hybrid; 35S-labelled in vitro translation product in the pull-down; endogenous in A549, DU145 and H460 cells; also called AIMP2-F; p38
T4 sequence: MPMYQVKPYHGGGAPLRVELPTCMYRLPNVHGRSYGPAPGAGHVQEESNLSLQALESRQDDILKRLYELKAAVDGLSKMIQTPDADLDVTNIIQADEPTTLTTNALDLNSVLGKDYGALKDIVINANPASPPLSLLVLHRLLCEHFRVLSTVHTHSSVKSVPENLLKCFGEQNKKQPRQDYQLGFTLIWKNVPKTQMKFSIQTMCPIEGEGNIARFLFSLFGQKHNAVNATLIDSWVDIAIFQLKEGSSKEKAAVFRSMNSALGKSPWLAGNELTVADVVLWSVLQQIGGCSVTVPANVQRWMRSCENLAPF
The test is described as follows: Western blot of H460 cell lysates (FIG. 22). As for the experimental part:
Lastly, it was tested whether H5 antibody is capable of differentiating AIMP2-DX2 from wild type AIMP2 protein (See FIG. 22). Western blot analysis was performed on H460 cell lysates using the H5 antibody.

The target in test [5] is B4. Kind of test: surface plasmon resonance, H5 IgG on CM5 chip, peptide in flow (FIG. 21a). The source says:
H5 antibody and IgG proteins were coated on the CM5 chips, while the exemplary AIMP2-DX2 epitope peptide (i.e. amino acid residues 42 to 52 ([…]) as shown in SEQ ID NO: 2 or SEQ ID NO: 17) at various concentrations was flowed over the chip. As shown in FIG. 21a and FIG. 21b, the binding affinity between H5 IgG antibody and the AIMP2-DX2 epitope peptide was indicated in sensorgram. X axis of sensorgram indicates time (second, s), while y axis means response (response unit, RU). The description in a box indicates a concentration of the AIMP2-DX2 epitope peptide in nM.
Still further, the binding affinity between H5 IgG antibody and the exemplary AIMP2-DX2 epitope peptide was determined by using surface plasmon resonance analysis (See FIG. 21). The H5 antibody (IgG) and IgG proteins were coated on the CM5 chips, while the exemplary AIMP2-DX2 epitope peptide at various concentrations was flowed over the chip to monitor the real time association and dissociation between H5 antibody and the exemplary AIMP2-DX2 epitope peptide. Analysis reagents and buffer were injected at the flow velocity of 15 μl/min. for 6 min, followed by washing for 20 min. Analysis was performed in sensorgram in which a response result of a blank without protein coating is subtracted from a response results between H5 antibody or IgG and the AIMP2-DX2 epitope peptides.

In a further test the target is T5, Smad2 (human) (human, UniProt Q15796 1-467, limits assumed).
T5 construct: LexA fusion (pEG202) in yeast two hybrid; also called R-Smad2; Lex-Smad2
Kind of test: yeast two hybrid (FIG. 4e).

A further test addresses T6, FUSE-binding protein (UniProt Q96AE4 1-644, limits assumed).
T6 construct: Yeast two hybrid fusion; construct not described; also called FBP
T6 sequence (looked up): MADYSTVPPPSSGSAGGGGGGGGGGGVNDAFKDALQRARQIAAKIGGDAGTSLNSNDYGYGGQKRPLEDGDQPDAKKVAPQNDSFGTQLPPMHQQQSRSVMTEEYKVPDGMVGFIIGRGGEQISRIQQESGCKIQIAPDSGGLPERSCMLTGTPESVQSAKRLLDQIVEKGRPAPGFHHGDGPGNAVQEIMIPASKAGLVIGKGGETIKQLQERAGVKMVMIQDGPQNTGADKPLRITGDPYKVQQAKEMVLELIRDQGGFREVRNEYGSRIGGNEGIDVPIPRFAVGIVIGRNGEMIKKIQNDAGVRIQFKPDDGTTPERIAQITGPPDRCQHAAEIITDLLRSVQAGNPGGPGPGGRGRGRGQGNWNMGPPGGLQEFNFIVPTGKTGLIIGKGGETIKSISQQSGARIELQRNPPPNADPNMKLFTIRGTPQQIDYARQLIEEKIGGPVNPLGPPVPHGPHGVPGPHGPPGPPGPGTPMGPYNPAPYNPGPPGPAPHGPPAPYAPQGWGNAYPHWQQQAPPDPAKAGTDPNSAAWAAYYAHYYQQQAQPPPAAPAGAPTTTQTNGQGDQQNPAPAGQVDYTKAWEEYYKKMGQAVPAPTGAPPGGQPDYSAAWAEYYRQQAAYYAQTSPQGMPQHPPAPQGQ
The test is described as follows: yeast two hybrid (FIG. 4e).

The target of the test “H5 Fab” is B1. Kind of test: antigen pre-adsorption, 100 µg/ml peptide with H5 Fab, Western blot of H460 lysate (FIG. 18). As for the experimental part:
Firstly, antigen pre-adsorption analysis was conducted in order to confirm whether the prepared H5 Fab specifically binds to the AIMP2-DX2. After electrophoresis of cell lysates of H460 lung cancer cells which expressed the AIMP2-DX2, Western blot analysis was performed using a H5 Fab in the presence of 100 μg/ml of the AIMP2-DX2 epitope polypeptide ([…]) (indicated as “+” in FIG. 18) and a H5 Fab without the addition of the AIMP2-DX2 epitope peptide (indicated as “−” in FIG. 18), respectively.

T5 sequence (Q15796 whole entry, the tested form may be a part): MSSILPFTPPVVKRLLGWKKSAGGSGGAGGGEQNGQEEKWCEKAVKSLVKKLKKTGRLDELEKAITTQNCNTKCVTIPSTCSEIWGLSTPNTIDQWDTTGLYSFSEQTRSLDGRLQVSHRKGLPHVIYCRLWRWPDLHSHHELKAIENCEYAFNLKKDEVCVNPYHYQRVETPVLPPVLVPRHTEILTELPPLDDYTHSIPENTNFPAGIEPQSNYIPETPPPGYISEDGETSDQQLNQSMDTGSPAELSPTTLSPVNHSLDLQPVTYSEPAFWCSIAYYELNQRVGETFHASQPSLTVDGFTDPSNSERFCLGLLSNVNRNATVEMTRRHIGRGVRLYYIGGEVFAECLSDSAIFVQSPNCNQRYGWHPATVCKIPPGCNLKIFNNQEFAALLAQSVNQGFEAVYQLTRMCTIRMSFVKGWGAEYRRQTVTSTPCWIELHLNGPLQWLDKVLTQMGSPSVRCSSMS

As to B1, the binding result is listed as “binds” in test [1], “binds” in test [2], “binds” in test [3] and “no binding” in test [4].

B2: H5 IgG antibody (antibody, V domains shown)
VH: QEQLVESGGGLVTPGGTLTLTCTASGFTISSYHMTWVRQAPGKGLEWIGVISNSGGTSYANWAKGRFTISKTSTTVDLKITSPTTEDTATYFCVRGVPGINSNLWGQGTLVTISS
VL: AQVLTQTPSSVSAAVGGTVTINCQSSQSVYSGNWLAWYQQKPGQPPKLLIYSTSTLASGVPSRFKGSGSGTQFTLTVSDLECDDAATYYCAGDYDGYKNAFGGGTKVVVKR
notes: also called H5 antibody (IgG); H5 antibody
For the molecule B2, the binding result in test [5] is “binds”.

B3: AIMP2-DX2 protein (other)
chain: MPMYQVKPYHGGGAPLRVELPTCMYRLPNVHGRSYGPAPGAGHVQDYGALKDIVINANPASPPLSLLVLHRLLCEHFRVLSTVHTHSSVKSVPENLLKCFGEQNKKQPRQDYQLGFTLIWKNVPKTQMKFSIQTMCPIEGEGNIARFLFSLFGQKHNAVNATLIDSWVDIAIFQLKEGSSKEKAAVFRSMNSALGKSPWLAGNELTVADVVLWSVLQQIGGCSVTVPANVQRWMRSCENLAPFNTALKLLK
notes: Endogenous protein in H460 or SW460 cell lysates in the Western blots; LexA/B42 fusion in yeast two hybrid; 35S-labelled in vitro translation product (pET-28a) in the pull-down; also called p38DX2; AIMP2 lacking exon 2
Turning to B3, the binding result with Smad2 (human) and in the test with FUSE-binding protein was “no binding” in each case.

Turning to B4, the binding result with H5 Fab is “binds”.
